According to patent US20220002423A1 (GENERAL HOSPITAL, published 2022):

Experiments:
[1] = biological target: T1, Amino acid residues 106-125 of human TNFR2 (human); test: ELISA, antibody alone
T1 sequence (peptide): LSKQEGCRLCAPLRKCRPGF

[2] = biological target: T2, Amino acid residues 26-45 of human TNFR2 (human); test: ELISA, antibody alone
T2 sequence (peptide): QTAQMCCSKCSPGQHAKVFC

[3] = biological target: T3, Amino acid residues 34-53 of human TNFR2 (human); test: ELISA, antibody alone
T3 sequence (peptide): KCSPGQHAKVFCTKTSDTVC

[4] = biological target: T4, Amino acid residues 98-117 of human TNFR2 (human); test: ELISA, antibody alone
T4 sequence (peptide): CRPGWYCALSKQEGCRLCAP

[5] = biological target: Full-length human TNFR2 (human) (UniProt P20333); test: ELISA; categorical score, 0 lowest to 4 highest affinity
[6] = biological target: T5, Amino acid residues 74-93 of human TNFR2 (human); test: ELISA, antibody with TNFα added
T5 peptide: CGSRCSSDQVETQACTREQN

[7] = biological target: T1, Amino acid residues 106-125 of human TNFR2 (human); test: ELISA, coated linear peptides 1 µg/well, antibody 0.1 µg/well
[8] = biological target: T6, Amino acid residues 108-127 of human TNFR2 (human); test: as above
T6 sequence (peptide): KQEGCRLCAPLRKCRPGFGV

[9] = biological target: T2, Amino acid residues 26-45 of human TNFR2 (human); test: as above
[10] = biological target: T4, Amino acid residues 98-117 of human TNFR2 (human); test: as above
[11] = biological target: T7, Amino acid residues 58-77 of human TNFR2 (human); test: ELISA on TNFR2 peptide fragment; categorical score, 0 lowest to 4 highest affinity
T7 peptide: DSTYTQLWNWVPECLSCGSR

[12] = biological target: T8, Amino acid residues 66-85 of human TNFR2 (human); test: as above
T8 peptide: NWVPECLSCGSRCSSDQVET

[13] = biological target: T5, Amino acid residues 74-93 of human TNFR2; test: as above
[14] = biological target: T9, Amino acid residues 82-101 of human TNFR2 (human); test: as above
T9 peptide: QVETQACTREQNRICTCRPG

[15] = biological target: T10, Amino acid residues 90-109 of human TNFR2 (human); test: as above
T10 peptide: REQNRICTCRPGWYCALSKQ

[16] = biological target: T11, Amino acid residues 114-133 of human TNFR2 (human); test: as above
T11 peptide: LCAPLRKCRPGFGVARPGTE

[17] = biological target: T12, Amino acid residues 122-141 of human TNFR2 (human); test: as above
T12 peptide: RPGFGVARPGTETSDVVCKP

[18] = biological target: T13, Amino acid residues 130-149 of human TNFR2 (human); test: as above
T13 peptide: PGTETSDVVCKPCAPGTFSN

[19] = biological target: T14, Amino acid residues 138-157 of human TNFR2 (human); test: as above
T14 peptide: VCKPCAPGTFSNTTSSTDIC

[20] = biological target: T15, Amino acid residues 146-165 of human TNFR2 (human); test: as above
T15 peptide: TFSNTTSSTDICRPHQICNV

[21] = biological target: T16, Amino acid residues 154-174 of human TNFR2 (human); test: as above
T16 peptide: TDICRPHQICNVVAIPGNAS

[22] = biological target: T17, Amino acid residues 162-181 of human TNFR2 (human); test: as above
T17 peptide: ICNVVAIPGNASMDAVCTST

[23] = biological target: T18, Amino acid residues 170-189 of human TNFR2 (human); test: as above
T18 peptide: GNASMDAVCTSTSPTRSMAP

[24] = biological target: T19, Amino acid residues 1-20 of human TNFR2 (human); test: as above
T19 construct: 20-mer fragment
T19 peptide: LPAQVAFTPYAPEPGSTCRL

[25] = biological target: T20, Amino acid residues 9-28 of human TNFR2 (human); test: as above
T20 peptide: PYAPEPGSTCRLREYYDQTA

[26] = biological target: T21, Amino acid residues 17-36 of human TNFR2 (human); test: as above
T21 peptide: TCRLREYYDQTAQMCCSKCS

[27] = biological target: T22, Amino acid residues 42-61 of human TNFR2 (human); test: as above
T22 peptide: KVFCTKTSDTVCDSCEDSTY

[28] = biological target: T23, Amino acid residues 50-69 of human TNFR2 (human); test: as above
T23 peptide: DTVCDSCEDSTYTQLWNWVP

- Reading [1]: 2
- Affinity [2]: 1
- Reading [2]: 0.1
- Affinity [3]: 1
- Affinity [4]: 1
- Reading [4]: 2
- Affinity Score [5]: 4
- binding result [6]: no binding
- Affinity [7]: 2
- Reading [7]: 0
- Affinity [8]: 2
- Reading [8]: 0
- Affinity [9]: 1
- Reading [9]: 0
- Affinity [10]: 1
- Reading [10]: 0
- Affinity Score [11]: 0
- Affinity Score [12]: 0
- Affinity Score [13]: 0
- Affinity Score [14]: 0
- Affinity Score [15]: 2
- Affinity Score [16]: 0
- Affinity Score [17]: 0
- Affinity Score [18]: 0
- Affinity Score [19]: 0
- Affinity Score [20]: 0
- Affinity Score [21]: 0
- Affinity Score [22]: 0
- Affinity Score [23]: 0
- Affinity Score [24]: 0
- Affinity Score [25]: 0
- Affinity Score [26]: 0
- Affinity Score [27]: 0
- Affinity Score [28]: 0
B1: agonistic TNFR2 antibody TNFRAG1 (antibody, V domains shown)
VH: EVQLQQFGAELVKPGASVKISCKASGYTFTDYNIDWVKQSHGKSLEWIGDINPNYDSTSYSQKFRGKATLTVDKSSSTAYMELRSLTSEDTAVYYCARGNSWYFDVWGAGTTVTVSS
VL: QIVLTQSPALMSASPGEKVTMTCSASSSVRYMYWYQQKPRSSPKPWIYLTSNLASGVPARFSGSGSGTSYSLTISSMEAEDAATYYCQQWSSNPLTFGAGTKLELK
notes: the primary antibodies were detected with secondary antibodies against rodent IgG; also called monoclonal TNFR2 antibody TNFRAG1; TNFR2 agonist antibody
